This data set deals with MS2 coat protein. Description: apparent KD of MS2 coat protein; designed switch direction (-1 OFF switch, 1 ON switch): -1; higher = weaker reporter binding. The method, boiled down: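 Designed RNA switches with common flanks were transcribed on Illumina chips by stalled E. coli RNA polymerase and titrated with SNAP-549-labelled MS2 coat protein, from 0.7 or 1.5 nM doubling to 3 µM, in Tris-HCl pH 7.5 buffer with KCl, MgCl2, BSA, DTT, tRNA and Tween-20. Steps lasted 0.8–1.5 h (lowest) to 10–20 min (highest). Titrations ran without input, with 200 uM small-molecule ligand, or with an oligonucleotide input. Normalised cluster fluorescence was curve-fitted, and apparent KD is the per-design median over clusters.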

The mark [1] stands for this setting: Eterna round: R95, input ligand: FMN 200 uM.
Where [2] appears, read: Eterna round: R95, input ligand: microRNA oligo, concentration not stated.
Where [3] appears, read: Eterna round: R95, input ligand: none.
The mark [4] stands for this setting: input ligand: microRNA oligo, concentration not stated.

As for “AAUAGCAAGUAAGAUCCUAACAUGAGGAUCACCCAUGUGCUCGUCUUGUAAAGUACUAUCACGAAAGUGAUAGUACA [Sensor 3, v1 - 50] (puzzle: Sensor v3, turn-off variant 1)”, the “apparent KD of MS2 coat protein” value was found to be 108 nM under setting [1], 69.4 nM under setting [2] and 146 nM under setting [3].
With “AAUCAUAGGUAAGGAUAUGAAGAUCUGGUGGUGACAUGAGGAUCACCCAUGUGAAAACGAUGAGAUCAGAAGGUACAAUAUGAA [AK ExNG2-4] (Eterna round: R96, puzzle: Exclusion NG 2)”, the “apparent KD of MS2 coat protein” value by setting is: (input ligand: FMN 200 uM) 108 nM; under setting [4], 18 nM; (input ligand: none) 88.3 nM.
With “AAUCCACAUGAGGAUCACCCAUGUCAGGAUAUGGUGACGCGGGUUUCGGUGCGUGUUGCCAGAAGGGACGGCUG (puzzle: Exclusion 1)”, the “apparent KD of MS2 coat protein” value under setting [2] stood at 23.8 nM.
With “AAUCCUAGCGUAAGGAUAUCAAAACUAUCCCGUUAUGAGAAGGUACAUGAGGAUCACCCAUGUUAAUGGGAUAA [BmEX4 A.19] (Eterna round: R97, puzzle: Brourd's mod of Exclusion 4)”, the “apparent KD of MS2 coat protein” value (input ligand: FMN 200 uM) is 20.2 nM and the “apparent KD of MS2 coat protein” value (input ligand: none) stood at 19.3 nM.
As for “AAUGAUUGACGAGGAUAUUGUGGUGAAACACGACGAGAAGGCGUAUGUCACAUGAGGAUCACCCAUGUGAACUUUGUGGAUAUA [Ex NG1 #70] (Eterna round: R96, puzzle: Exclusion NG 1)”, the “apparent KD of MS2 coat protein” value by setting is: (input ligand: FMN 200 uM) 30.4 nM; under setting [4], 33.3 nM; (input ligand: none) 38.8 nM.
Turning to “AAUGAUUGAUGAGGAUAUUGUGGUGAAACACGACGAGAAGGCAUAUGUCACAUGAGGAUCACCCAUGUGAGCCUUGUGGAUAUA [Ex NG1 #66] (Eterna round: R96, puzzle: Exclusion NG 1)”, the “apparent KD of MS2 coat protein” value is 115 nM (input ligand: FMN 200 uM), 45.9 nM under setting [4] and 57.9 nM (input ligand: none).
On to “AAUGGAUGUGUUAGGAUAUCCGGAGGGAAACCUCCGGAGAAGGAACAUGAGGAUCACCCAUGUAUGUAAAAUAC [AK-MS2ROC-r4-Bmoexclusion4-3] (Eterna round: R97, puzzle: Brourd's mod of Exclusion 4)”, for which the “apparent KD of MS2 coat protein” value is, setting by setting: (input ligand: FMN 200 uM) 449 nM; (input ligand: none) 111 nM.
For the sequence “AAUUAAACAUAGGAUAUCGAAUUUAUUAUUUAACGAGAAGGAUGAACAUGAGGAUCACCCAUGUGGUAUCAUGG [Mat - Exclusion 6 - JL Mod - D23] (puzzle: Exclusion 6)”, the “apparent KD of MS2 coat protein” value runs as follows: under setting [1], 333 nM; under setting [2], 197 nM; under setting [3], 213 nM.
On to “AAUUAACAAGCAAGAUCCUACAUGAGGAUCACCCAUGUGCUCGUCUUAUAAAGUACUAUCACGAAAGUGAUAGUACA [Mat - Sensor v3 - turn-off var 1 - Eli Mod - D57] (puzzle: Sensor v3, turn-off variant 1)”, for which the “apparent KD of MS2 coat protein” value is, setting by setting: under setting [1], 217 nM; under setting [2], 357 nM; under setting [3], 197 nM.
For the sequence “AAUUAACUAGGAUAUACUUGAGGAUCACCCAAGUGGGCUCCACCUGCUUGGCUCCCAGGUAGAAGGAGUAUACA [Tioner] (Eterna round: R97, puzzle: Exclusion 3)”, the “apparent KD of MS2 coat protein” value (input ligand: FMN 200 uM) amounted to 213 nM and the “apparent KD of MS2 coat protein” value (input ligand: none) came out at 538 nM.
For “AAUUAGCAAGCGAGAUCCCACAUGAGGAUCACCCAUGUGCUCGUCUUAUAUAAGGUACUGUACGAGAGUACGGUACC [Mat - Sensor, turn-off var - Eli Mod - D30] (Eterna round: R97, puzzle: Sensor, turn-off variant 1)” the same measures were 12.1 nM and 10.6 nM.
As to “AAUUAUUUUUGAGGAUAUCGUGGUGAAACACCACGAGAAGGCAAGAUACACAUGAGGAUCACCCAUGUGAGCCUGAUGCUUAUG [Ex NG1 #52] (Eterna round: R96, puzzle: Exclusion NG 1)”, the “apparent KD of MS2 coat protein” value under setting [4] turned out to be 13.2 nM.
Consider “AAUUCACAUGAGGAUCACCCAUGUCAGGAUAUGGUUUUAUUUUUUUCUUUUCUUGAUUCCAGAAGGGACAGCUA (puzzle: Exclusion 1)”, for which the “apparent KD of MS2 coat protein” value under setting [2] stood at 70.8 nM.
As to “ACAAAGCUUUUUGCUCGUCACAUGAGGAUCACCCAUGUGAUAUAAUGAAAAUUAUAUGACAUCCCACUAGGACAUGU [I did it?] (Eterna round: R97, puzzle: Sensor, turn-off variant 1)”, the “apparent KD of MS2 coat protein” value runs as follows: (input ligand: FMN 200 uM) 18.5 nM; (input ligand: none) 20.9 nM.
On to “ACAAGAAUUUUGCUCGUAAAGUAGAAACGCGAGAGCGGGACAUGAGGAUCACCCAUGUAAAGGCAGUUGGUGGAGAU [JR_SV3TOV2_Sub028] (puzzle: Sensor v3, turn-off variant 2)”, for which the “apparent KD of MS2 coat protein” value was 39.7 nM under setting [1], 53.2 nM under setting [2] and 48.7 nM under setting [3].
As to “ACAAGCAGAGAGUAAAUGGACAUGAGGAUCACCCAUGUGAGUCCAAGGAGAUAAGAUAUAUUAUUGGCUCGUCUUAU [AK-miRNA-r3-20] (Eterna round: R97, puzzle: Sensor, turn-off variant 1)”, the “apparent KD of MS2 coat protein” value came out at 75.2 nM (input ligand: FMN 200 uM) and 104 nM (input ligand: none).
For “ACAAGCAGAGAGUAAAUGGACAUGAGGAUCACCCAUGUGAGUCCAAGGAGAUAAGAUAUUAAAAAGGCUCGUCUUAU [AK-miRNA-r3-19] (Eterna round: R97, puzzle: Sensor, turn-off variant 1)” the same measures were 112 nM and 98.3 nM.
For “ACAAGCUCUGUGGGUGGUGACAUGAGGAUCACCCAUGUUUUGCUCGUCUUGUCCCGGGCCCGGCGCCCGGGCCCGGG [-40.4, -69.3, A 12%] (Eterna round: R97, puzzle: Sensor, turn-off variant 1)” the same measures were 625 nM and 1340 nM.
Take “ACAAGCUCUGUGGGUGGUGACAUGAGGAUCACCCAUGUUUUGCUCGUCUUGUCGGCCGGCCGGCGCCCGGCCGGCCG [-39.6, -68.5, A 12%] (Eterna round: R97, puzzle: Sensor, turn-off variant 1)”: the “apparent KD of MS2 coat protein” value was found to be 498 nM (input ligand: FMN 200 uM) and 727 nM (input ligand: none).
With “ACAAGCUUAAAGGUGAAUAACAUGAGGAUCACCCAUGUUCGUCUUAUAAAAAUAAAAAUAAAAAAUAAAAAAUAAAA [Sensor V2: 62] (Eterna round: R96, puzzle: Sensor v2, turn-off variant)”, the “apparent KD of MS2 coat protein” value was determined as 25.6 nM (input ligand: FMN 200 uM), 87.2 nM under setting [4] and 27.9 nM (input ligand: none).
For the sequence “ACAAGCUUAAUCUGUAUGAACAUGAGGAUCACCCAUGUAUAAGGGAAUUCUUUUGGGUUUUUUAUUGCUCGUCUUAU [JR_STOV1_Sub021] (Eterna round: R97, puzzle: Sensor, turn-off variant 1)”, the “apparent KD of MS2 coat protein” value came to 317 nM (input ligand: FMN 200 uM) and 311 nM (input ligand: none).
“ACAAGCUUUUUGCUCGAAGAGUAGAAACGUGAGAGCGAAACAUGAGGAUCACCCAUGUAAAGGCAGUAGGUGAAGAU [JR_SV3TOV2_Sub024] (puzzle: Sensor v3, turn-off variant 2)”: the “apparent KD of MS2 coat protein” value runs as follows: under setting [1], 39.8 nM; under setting [2], 57.4 nM; under setting [3], 57.2 nM.
Taken in the same sequence, the figures for “ACAAGCUUUUUGCUCGGGUACAUGAGGAUCACCCAUGUUUGGGUUUAUUGAGGUUGUGUGGGCGUGCGCUGCAGGUU [JR_SV3TOV1_Sub075] (puzzle: Sensor v3, turn-off variant 1)” were 87.7 nM, 243 nM and 118 nM.
For “ACAAGCUUUUUGUUCGUCUUAUAAUAUUCAAUAAAGAUAACAUGAGGAUCACCCAUGUAACAAAGACGGACUCAUGU [Sesor Array 16 - Jieux - Sensor v3, turn-off variant 2] (puzzle: Sensor v3, turn-off variant 2)” the same measures were 16.5 nM, 267 nM and 12.4 nM.
In the case of “ACAAGGAUGAAGGAUAUGGAAGAGUGGGAGCCUCCAGAAGGUCGUACAUGAGGAUCACCCAUGUAUUGGGCUUA [Eternabot (L2) Solution 38] (Eterna round: R97, puzzle: Exclusion 6)”, the “apparent KD of MS2 coat protein” value (input ligand: FMN 200 uM) stood at 22.5 nM and the “apparent KD of MS2 coat protein” value (input ligand: none) turned out to be 21 nM.
For “ACACACAGAGGAUAUCUUCCGCAUGACAUGAGGAUCACCCAUGUGUGCAUGCCCAAAAGUAGAGAAGGCUGUGUGU [eternacac ex5r4 #3] (Eterna round: R97, puzzle: Exclusion 5)” the same measures were 27.1 nM and 35.6 nM.
On to “ACAGCGUGAGGAUAUACAUGAGGAUCACCCAUGUAUGGCAGGUUAUCCUGUCGUAAGUGUAGAAGGCACGCUGU [Exclusion 3 - Oddities v.4 ( A small slide from ms2 to fmn)] (puzzle: Exclusion 3)”, for which, under setting [2], the “apparent KD of MS2 coat protein” value was determined as 18.8 nM.
“ACAUCACAUGAGGAUCACCCAUGUCAGGAUAUUCAGCGUAGCAUGCUACCUAACAUCAGAAGAAGGGACACGUA [First Design] (Eterna round: R97, puzzle: Exclusion 1)”: the “apparent KD of MS2 coat protein” value stood at 64.5 nM (input ligand: FMN 200 uM) and 68.2 nM (input ligand: none).
For the sequence “ACAUGAGGAGAAGGAUAUCUUUAGAGGGUUACCAGAGAAGGUCUAACAUGAGGAUCACCCAUGUCAUGAGGGUCUUGAAUGUUG [10th something] (Eterna round: R96, puzzle: Exclusion NG 1)”, the “apparent KD of MS2 coat protein” value came to 145 nM (input ligand: FMN 200 uM), 151 nM under setting [4] and 140 nM (input ligand: none).

The values above are taken from the supplement of paper PMC9170038.
